According to patent US10799597B2, “Subcutaneous administration of antibody-drug conjugates for cancer therapy” (Immunomedics, Inc., priority 2017, dated 2020):
Values joined by “and” are separate entries in the source; they are usually repeats but may differ in a detail not shown here. Identical values can stand only once.

Legend:
advanced GI cancers = assay: Phase I/II trial of IMMU-132 in patients with advanced GI cancers: best response by RECIST and time to progression; assay type: in vivo, human; settings: for median TTP: SD patients
Procedure: Patients with metastatic cancers were enrolled after failing standard therapy, starting at a dose of 8.0 mg/kg given on days 1 and 8 of a 3-week cycle. […]

BxPC-3 = assay: Signaling events (p21Waf1/Cip1, p53) in BxPC-3 cells; assay type: cell-based, human
Text: SN-38 is known to activate several signaling pathways in cells, leading to apoptosis (e.g., Cusack et al., 2001, Cancer Res 61:3535-40; Liu et al. 2009, Cancer Lett 274:47-53; Lagadec et al., 2008, Br J Cancer 98:335-44). Our initial studies examined the expression of 2 proteins involved in early signaling events (p21^Waf1/Cip1 and p53) and 1 late apoptotic event [cleavage of poly-ADP-ribose polymerase (PARP)] in vitro (not shown).

[1] = Tolerability of multiple subcutaneous injections of IMMU-132 in nude mice; assay type: in vivo, female nude mice; settings: s.c. 2 mg or 500 μg twice a week for four weeks
Procedure: One group of two mice received 2 mg injections (HED=8 mg/kg) while a second group of two animals, 500 μg (HED=2 mg/kg). For comparison, one mouse received only saline injections. Each injection (100 μL) was administered at the same location (i.e., right rear flank) twice a week for four weeks. Mice were weighed on the day of injection and the injection site examined for any signs of toxicity (i.e, rash, ulceration, etc.). If any occur, it would be documented by photographing the area. One day after the last injection, the mice were anesthetized and the injection site photographed (FIG. 12). This was repeated one week after the final injection (FIG. 13).

[2] = Phase I/II clinical trial of IMMU-132 (Example 9): related adverse events
Procedure: To optimize cumulative treatment with minimal delays, phase II is focusing on 8 and 10 mg/kg (n=30 and 14, respectively). […] [table]

[3] = one gastric cancer patient with SD
[4] = 49 patients reporting related AE
[5] = related AE, N = 47 patients, CTCAE v 4.0

IMMU-132: ADC of the humanized hRS7 anti-Trop-2 antibody conjugated by a pH-sensitive linker (CL2A) to SN-38
PR (partial response) as best response by RECIST, number of patients (advanced GI cancers; 29 CRC patients (9 at 10 mg/kg, 20 at 8 mg/kg)): 1
target lesion change of the PR (advanced GI cancers; CRC patient with PR): −65%
time to progression (TTP) for the PR (advanced GI cancers; CRC patient with PR): ≥ 50 wks
median TTP (advanced GI cancers; CRC with KRAS mutations): ≥ 19.1 wks
median TTP for the SD patients (advanced GI cancers; CRC, 14 SD patients (5 continuing)): ≥ 21 wks
TTP of the PR (advanced GI cancers; esophageal cancer): ≥ 30 wks
duration of SD in individual patients (advanced GI cancers; esophageal cancer): ≥ 17.4 wks and 21.9 wks and 26.3 wks and 29.9 wks
ongoing TTP (advanced GI cancers; [3]): ≥ 29 wks
target lesion reduction (advanced GI cancers; [3]): 19%
median TTP (advanced GI cancers; pancreatic cancer): 15.0 wks
time of p53 upregulation (BxPC-3): ≤ 24 h
skin irritation at the site of multiple injections [1]: no evidence of skin irritation
alopecia [2, 4]: 40%
diarrhea [2, 4]: 47%
fatigue [2, 4]: 55%
nausea [2, 4]: 53%
neutropenia G4 [2, 4]: 4%
vomiting [2, 4]: 32%
Abdominal pain, Grade 3, patients (%) [2, 5]: 0
Abdominal pain, Grade 4, patients (%) [2, 5]: 0
Anemia, Grade 3, patients (%) [2, 5]: 2 (4%)
Anemia, Grade 4, patients (%) [2, 5]: 0
Deep vein thrombosis, Grade 3, patients (%) [2, 5]: 1 (2%)
Deep vein thrombosis, Grade 4, patients (%) [2, 5]: 0
Diarrhea, Grade 3, patients (%) [2, 5]: 4 (9%)
Diarrhea, Grade 4, patients (%) [2, 5]: 0
Dysgeusia, Grade 3, patients (%) [2, 5]: 0
Dysgeusia, Grade 4, patients (%) [2, 5]: 0
Fatigue, Grade 3, patients (%) [2, 5]: 4 (9%)
Fatigue, Grade 4, patients (%) [2, 5]: 0
Febrile Neutropenia, Grade 3, patients (%) [2, 5]: 1 (2%)
Febrile Neutropenia, Grade 4, patients (%) [2, 5]: 2 (4%)
Hypokalemia, Grade 3, patients (%) [2, 5]: 1 (2%)
Hypokalemia, Grade 4, patients (%) [2, 5]: 0
Nausea, Grade 3, patients (%) [2, 5]: 0
Nausea, Grade 4, patients (%) [2, 5]: 0
Neutropenia, Grade 3, patients (%) [2, 5]: 11 (24%)
Neutropenia, Grade 4, patients (%) [2, 5]: 2 (4%)
Pyrexia, Grade 3, patients (%) [2, 5]: 0
Pyrexia, Grade 4, patients (%) [2, 5]: 0
Vomiting, Grade 3, patients (%) [2, 5]: 1 (2%)
Vomiting, Grade 4, patients (%) [2, 5]: 0
WBC Decrease, Grade 3, patients (%) [2, 5]: 1 (2%)
WBC Decrease, Grade 4, patients (%) [2, 5]: 0
